{"source": "patent US20230250170A1", "key": {"[1]": {"molecular_target": "human NPR1 on HEK293/hNPR1 cells (human) (UniProt P16066)", "sequence (P16066 33-1061)": "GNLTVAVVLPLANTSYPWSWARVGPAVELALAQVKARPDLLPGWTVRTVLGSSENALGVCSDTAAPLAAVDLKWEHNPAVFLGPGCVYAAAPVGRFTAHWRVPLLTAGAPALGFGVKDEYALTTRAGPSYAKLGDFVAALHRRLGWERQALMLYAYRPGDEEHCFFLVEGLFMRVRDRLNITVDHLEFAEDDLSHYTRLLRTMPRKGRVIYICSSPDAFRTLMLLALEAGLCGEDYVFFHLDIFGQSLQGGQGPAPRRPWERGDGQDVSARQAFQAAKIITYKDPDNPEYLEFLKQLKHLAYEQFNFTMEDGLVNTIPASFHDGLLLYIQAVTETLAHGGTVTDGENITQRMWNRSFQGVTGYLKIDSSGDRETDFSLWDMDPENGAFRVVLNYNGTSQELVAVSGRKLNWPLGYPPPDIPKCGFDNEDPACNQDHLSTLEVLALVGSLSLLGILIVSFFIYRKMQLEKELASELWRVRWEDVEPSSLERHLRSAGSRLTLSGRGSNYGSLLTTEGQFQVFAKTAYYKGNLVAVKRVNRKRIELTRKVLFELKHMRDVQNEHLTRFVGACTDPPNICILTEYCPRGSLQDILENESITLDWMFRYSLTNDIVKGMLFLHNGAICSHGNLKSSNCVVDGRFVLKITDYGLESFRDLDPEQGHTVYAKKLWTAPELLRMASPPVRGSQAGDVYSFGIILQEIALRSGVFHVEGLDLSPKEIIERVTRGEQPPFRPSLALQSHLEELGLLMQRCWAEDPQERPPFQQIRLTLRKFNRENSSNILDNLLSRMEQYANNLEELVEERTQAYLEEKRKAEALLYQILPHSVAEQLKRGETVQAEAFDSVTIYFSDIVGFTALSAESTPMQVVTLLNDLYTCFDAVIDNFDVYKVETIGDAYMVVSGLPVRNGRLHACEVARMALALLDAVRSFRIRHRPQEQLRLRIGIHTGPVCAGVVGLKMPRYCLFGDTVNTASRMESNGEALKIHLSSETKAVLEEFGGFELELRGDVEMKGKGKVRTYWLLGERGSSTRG"}, "[2]": {"molecular_target": "human NPR1 on HEK293/hNPR1 cells (human) (UniProt P16066)", "remark": "listed apart in the source"}, "[3]": {"molecular_target": "human NPR1 on HEK293/hNPR1 cells (human) (UniProt P16066)", "remark": "listed apart in the source"}, "[4]": {"molecular_target": "human NPR1 on HEK293/hNPR1 cells (human) (UniProt P16066)", "remark": "listed apart in the source"}}, "note": "Read-outs that look alike come from different tables or passages of the source.", "data": [{"binder": "SLRRSSCFGGRMDRIGAQSGLGCNSFRY (ligand, UniProt P01160 124-151, looked up)", "note": "[atrial natriuretic peptide (ANP)]", "values": [{"measurement": "EC50 (read off the curve); cGMP accumulation, HEK293/hNPR1 cells, ANP after pre-treatment with 50 nM REGN7541", "setting": "[1]", "result": 200, "unit": "pM"}, {"measurement": "EC50 (read off the curve); cGMP accumulation, HEK293/hNPR1 cells, ANP after pre-treatment with 150 nM REGN7541", "setting": "[1]", "result": 800, "unit": "pM"}, {"measurement": "EC50 (read off the curve); cGMP accumulation, HEK293/hNPR1 cells, ANP alone (dilution buffer)", "setting": "[1]", "result": 70, "unit": "pM"}, {"measurement": "EC50 (read off the curve); cGMP accumulation, HEK293/hNPR1 cells, ANP after pre-treatment with 50 nM H4H22034N", "setting": "[2]", "result": 600, "unit": "pM"}, {"measurement": "EC50 (read off the curve); cGMP accumulation, HEK293/hNPR1 cells, ANP after pre-treatment with 150 nM H4H22034N", "setting": "[2]", "result": 600, "unit": "pM"}, {"measurement": "EC50 (read off the curve); cGMP accumulation, HEK293/hNPR1 cells, ANP after pre-treatment with 450 nM H4H22034N", "setting": "[2]", "result": 600, "unit": "pM"}, {"measurement": "EC50 (read off the curve); cGMP accumulation, HEK293/hNPR1 cells, ANP after pre-treatment with 50 nM REGN7548", "setting": "[3]", "result": 700, "unit": "pM"}, {"measurement": "EC50 (read off the curve); cGMP accumulation, HEK293/hNPR1 cells, ANP alone (dilution buffer)", "setting": "[3]", "result": 90, "unit": "pM"}, {"measurement": "EC50 (read off the curve); cGMP accumulation, HEK293/hNPR1 cells, ANP after pre-treatment with 50 nM REGN7544", "setting": "[4]", "result": 300, "unit": "pM"}, {"measurement": "EC50 (read off the curve); cGMP accumulation, HEK293/hNPR1 cells, ANP after pre-treatment with 150 nM REGN7544", "setting": "[4]", "result": 800, "unit": "pM"}, {"measurement": "EC50 (read off the curve); cGMP accumulation, HEK293/hNPR1 cells, ANP after pre-treatment with 450 nM REGN7544", "setting": "[4]", "result": 40, "unit": "nM"}, {"measurement": "EC50 (read off the curve); cGMP accumulation, HEK293/hNPR1 cells, ANP alone (dilution buffer)", "setting": "[4]", "result": 100, "unit": "pM"}]}]}
